Laboratory results from publication PMC6006217.

Key:
[1] = molecular target: FcγRI on HEK293/FcγRI cells (human) (UniProt P12314)
[2] = molecular target: BGB-A317/IgG4_(S228P) (human); assay: SPR; Biacore, human PD-1/His immobilised on a CM5 chip; the antibody captured on the PD-1/His surface; FcγRI injected over it
Sequence of BGB-A317/IgG4_(S228P) (human) (heavy, as listed by the source, chain 1 of 2): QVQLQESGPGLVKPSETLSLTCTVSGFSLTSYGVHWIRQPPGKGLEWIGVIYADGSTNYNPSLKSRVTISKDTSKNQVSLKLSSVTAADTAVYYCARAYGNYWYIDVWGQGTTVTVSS
Sequence of BGB-A317/IgG4_(S228P) (human) (light, as listed by the source, chain 2 of 2): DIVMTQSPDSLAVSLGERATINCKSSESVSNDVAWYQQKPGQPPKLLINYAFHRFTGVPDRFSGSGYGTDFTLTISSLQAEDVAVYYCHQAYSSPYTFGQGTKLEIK

With BGB-A317/IgG4_(S228P) (antibody) the IL-10 gene transcription (real-time PCR) in M2 macrophages seeded on PD-1-coated plates in the presence of the antibody, against huIgG baseline [1] was less than 5 fold.

“human FcγRI (from UniProt P12314 16-292) (receptor)” gave a Ka [2] of 3.57e+08 M⁻¹, a Kd [2] of 2.8 nM and a koff [2] of 0.00199 s⁻¹. For the same substance, the kon [2] was 712000 M⁻¹ s⁻¹.
